Source: patent US20180362616A1 (NATIONAL INSTITUTE FOR BIOTECHNOLOGY IN THE NEGEV, published 2018)
Changes are numbered by the printed parent chain. Names may count otherwise.

Key:
Factor XIa [1] = biological target: T1, Factor XIa (human, UniProt P03951 19-625); assay: inhibition of FXIa cleavage of S-2366
T1 construct: also called FXIa

[2] = biological target: T2, human mesotrypsin (catalytically active) (human, UniProt P35030 81-304); assay: inhibition of mesotrypsin cleavage of Z-GPR-pNA
T2 construct: mature; In the invasion assays it is the endogenous enzyme of PC3-M cells; also called active mesotrypsin; PRSS3 gene product
T2 sequence (looked up): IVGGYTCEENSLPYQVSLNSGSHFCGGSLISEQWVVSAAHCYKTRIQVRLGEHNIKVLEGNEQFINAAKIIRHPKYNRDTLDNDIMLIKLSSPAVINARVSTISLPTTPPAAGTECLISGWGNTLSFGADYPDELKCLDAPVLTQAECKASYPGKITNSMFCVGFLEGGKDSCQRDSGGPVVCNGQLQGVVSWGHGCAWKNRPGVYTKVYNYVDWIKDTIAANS

human Kallikrein-6 [3] = biological target: T3, human Kallikrein-6 (human, UniProt Q92876 22-244); assay: SPR, APPI held on nickel chip by its His tag, hK6 as analyte, 25° C.
human Kallikrein-6 [4] = biological target: T3, human Kallikrein-6; assay: inhibition of hK6 catalytic activity, slow tight inhibition mechanism
human anionic trypsin [5] = biological target: T4, human anionic trypsin (human, UniProt P07478 24-247); assay: inhibition of anionic trypsin cleavage of Z-GPR-pNA; slow tight-binding fit
T4 construct: mature

human cationic trypsin [6] = biological target: T5, human cationic trypsin (human, UniProt P07477 24-247); assay: inhibition of cationic trypsin cleavage of Z-GPR-pNA; slow tight-binding fit
T5 construct: mature

human Kallikrein-6 [7] = biological target: T3, human Kallikrein-6; assay: inhibition of kallikrein-6 cleavage of BOC-Phe-Ser-Arg-AMC; slow tight-binding fit
[8] = biological target: T2, human mesotrypsin (catalytically active); assay: inhibition of mesotrypsin cleavage of Z-GPR-pNA; competitive inhibition fit (Equation 1)
[9] = biological target: T2, human mesotrypsin (catalytically active); assay: inhibition of mesotrypsin activity
human Kallikrein-6 [10] = biological target: T3, human Kallikrein-6; assay: SPR, APPI held on nickel chip by its His tag, hK6 as analyte
[11] = biological target: T2, human mesotrypsin (catalytically active); assay: cell-based or functional assay
[12] = biological target: T2, human mesotrypsin (catalytically active); assay: Ki against that of APPI-WT, mesotrypsin inhibition (Equation 1)
[13] = biological target: T2, human mesotrypsin (catalytically active); assay: Ki against that of APPI-WT, mesotrypsin inhibition (Equation 2)
[14] = biological target: T2, human mesotrypsin (catalytically active); assay: inhibition of mesotrypsin cleavage of Z-GPR-pNA; slow tight-binding fit (Equation 2)
[15] = biological target: T2, human mesotrypsin (catalytically active); assay: free energy change of association calculated from Ki of mesotrypsin inhibition (Equation 4), triple mutant cycle
[16] = biological target: T2, human mesotrypsin (catalytically active); assay: Ki against that of APPI-WT, mesotrypsin inhibition
Factor XIa [17] = biological target: T1, Factor XIa; assay: Ki of APPI-WT over Ki of APPI-M17G/I18F/F34V, FXIa
[18] = biological target: T2, human mesotrypsin (catalytically active); assay: Ki of APPI-WT over Ki of APPI-M17G/I18F/F34V, mesotrypsin
human Kallikrein-6 [19] = biological target: T3, human Kallikrein-6; assay: Ki of APPI-WT over Ki of APPI-M17G/I18F/F34V, kallikrein-6
human anionic trypsin [20] = biological target: T4, human anionic trypsin; assay: Ki of APPI-WT over Ki of APPI-M17G/I18F/F34V, anionic trypsin
human cationic trypsin [21] = biological target: T5, human cationic trypsin; assay: Ki of APPI-WT over Ki of APPI-M17G/I18F/F34V, cationic trypsin
Factor XIa [22] = biological target: T1, Factor XIa; assay: by the numbers: Ki (fold) for mesotrypsin over Ki (fold) for FXIa
[23] = biological target: T2, human mesotrypsin (catalytically active); assay: inhibition of mesotrypsin cleavage of Z-GPR-pNA; slow tight-binding fit
human Kallikrein-6 [24] = biological target: T3, human Kallikrein-6; assay: by the numbers: Ki (fold) for mesotrypsin over Ki (fold) for kallikrein-6
[25] = biological target: T2, human mesotrypsin (catalytically active); assay: by the numbers: Ki (fold) for mesotrypsin over Ki (fold) for this protease
human anionic trypsin [26] = biological target: T4, human anionic trypsin; assay: by the numbers: Ki (fold) for mesotrypsin over Ki (fold) for anionic trypsin
human cationic trypsin [27] = biological target: T5, human cationic trypsin; assay: by the numbers: Ki (fold) for mesotrypsin over Ki (fold) for cationic trypsin
[28] = biological target: T2, human mesotrypsin (catalytically active); assay: cell-based or functional assay; remark: listed apart in the source
[29] = biological target: T2, human mesotrypsin (catalytically active); assay: Ki of soluble variant against APPI-WT
[30] = biological target: T2, human mesotrypsin (catalytically active); assay: inhibition constant of soluble variant; target taken as mesotrypsin

B1: APPI-WT (SEQ ID NO: 25), soluble, expressed in Pichia pastoris (other)
chain: EVCSEQAETGPCRAMISRWYFDVTEGKCAPFFYGGCGGNRNNFDTEEYCMAVCGSAI
notes: Secreted from P. pastoris GS115, purified by nickel IMAC and gel filtration; also called WT APPI; not shown: N-terminal FLAG tag with the SnaBI/EcoRI-coded residues, and the C-terminal AvrII-coded residues plus His6
For B1, the Ki (Factor XIa [1]) was 0.41 nM, the Ki [2] was 131 nM and the Kd (human Kallikrein-6 [3]) was 7.91 nM. For the same binder, the Ki (human Kallikrein-6 [4]) was 2.24 nM, the Ki (human anionic trypsin [5]) was 0.00174 nM and the Ki (human cationic trypsin [6]) was 0.00627 nM. It also gave a Ki (human Kallikrein-6 [7]) of 2.23 nM and a Ki [8] of 131 nM.

B2: APPIM17L,I18F,S19F,F34V (SEQ ID NO: 13), soluble (designed binder)
chain: B1 chain with M15L, I16F, S17F, F32V
notes: also called APPI 3M G17L,S19F; not shown: His tag at the C-terminal
For B2, the Ki [9] was 5.38 nM, the “fold improvement in binding compared to APPI WT” value (human Kallikrein-6 [10]) was 22.5 fold and the Kd (human Kallikrein-6 [3]) was 0.351 nM.

B3: APPI-M17G (SEQ ID NO: 18), soluble (designed binder)
chain: B1 chain with M15G
notes: not shown: AvrII site residues and C-terminal HIS6 tag
With B3 the “Kcat (s^-1) of hydrolysis of APPI by mesotrypsin (HPLC time course)” value (from here on “Kcat (s^-1) of hydrolysis of APPI”) [11] was 0.0156 s⁻¹, the “Ki (fold)” value [12] was 39.8 fold and the “Ki (fold)” value [13] was 34.8 fold. For the same binder, the Ki [14] was 3.69 nM, the Ki [8] was 3.29 nM and the “ΔΔGa, edge WT to M17G” value [15] was -2.26 kcal/mol.

B4: APPI-I18F/F34V (SEQ ID NO: 20), soluble (designed binder)
chain: B1 chain with I16F, F32V
notes: as for B3
For B4, the “Kcat (s^-1) of hydrolysis of APPI” value [11] was 0.00535 s⁻¹, the “Ki (fold)” value [16] was 39.8 fold and the Ki [14] was 3.3 nM. For the same binder, the “ΔΔGa, edge F34V to I18F/F34V” value [15] was -1.67 kcal/mol and the “ΔΔGa, edge I18F to I18F/F34V” value [15] was 0 kcal/mol.

B5: APPI-M17G/I18F/F34V (SEQ ID NO: 8), soluble (designed binder)
chain: B1 chain with M15G, I16F, F32V
notes: also called APPI 3M; APPI^3M; not shown: AvrII site residues and C-terminal HIS6 tag
In the case of B5, the “Kcat (s^-1) of hydrolysis of APPI” value [11] is reported as 0.000429 s⁻¹, the Ki (Factor XIa [1]) is reported as 98.4 nM and the “Ki (fold)” value [16] is reported as 1460 fold. For the same binder, the “Ki (fold)” value (Factor XIa [17]) was 0.00416 fold, the “Ki (fold)” value [18] was 1460 fold and the “Ki (fold)” value (human Kallikrein-6 [19]) was 2.04 fold. For the same binder, the “Ki (fold)” value (human anionic trypsin [20]) was 1.18 fold, the “Ki (fold)” value (human cationic trypsin [21]) was 1.3 fold and the Ki (human Kallikrein-6 [4]) was 1.1 nM. For the same binder, the “specificity ratio (formula not given)” value (Factor XIa [22]) was 350000, the Ki [23] was 0.0898 nM and the “specificity ratio (formula not given)” value (human Kallikrein-6 [24]) was 715. For the same binder, the “specificity ratio (formula not given)” value [25] was 1, the Ki (human anionic trypsin [5]) was 0.00147 nM and the “specificity ratio (formula not given)” value (human anionic trypsin [26]) was 1240. The Ki (human cationic trypsin [6]) was 0.00496 nM, the “specificity ratio (formula not given)” value (human cationic trypsin [27]) was 1120 and the Ki (human Kallikrein-6 [7]) was 1.09 nM. It also gave a Ki [14] of 0.0898 nM.

B6: APPIM17C/I18F/F34C (SEQ ID NO: 12), soluble (designed binder)
chain: B1 chain with M15C, I16F, F32C
notes: as for B3
In the case of B6, the “Kcat (1/s), proteolytic resistance” value [28] is reported as 0.00038 s⁻¹, the “fold improvement in affinity relative to APPI-WT” value [29] is reported as about 2000 fold and the Ki [30] is reported as 0.0524 nM.

B7: APPI-F34V (SEQ ID NO: 23), soluble (designed binder)
chain: B1 chain with F32V
notes: Variants were subcloned between EcoRI and AvrII of the APPI-WT pPIC9K template; not shown: AvrII site residues and C-terminal HIS6 tag
With B7 the “Kcat (s^-1) of hydrolysis of APPI” value [11] was 0.0161 s⁻¹, the “Ki (fold)” value [16] was 2.6 fold and the Ki [8] was 50.1 nM. The “ΔΔGa, edge WT to F34V” value [15] was -0.59 kcal/mol.

B8: APPI-I18F (SEQ ID NO: 19), soluble (designed binder)
chain: B1 chain with I16F
notes: as for B3
With B8 the “Kcat (s^-1) of hydrolysis of APPI” value [11] was 0.0104 s⁻¹, the “Ki (fold)” value [16] was 39.8 fold and the Ki [8] was 3.29 nM. For the same binder, the “ΔΔGa, edge WT to I18F” value [15] was -2.26 kcal/mol.

B9: APPI-M17G/I18F (SEQ ID NO: 22), soluble (designed binder)
chain: B1 chain with M15G, I16F
notes: as for B3
In the case of B9, the “Kcat (s^-1) of hydrolysis of APPI” value [11] is reported as 0.00291 s⁻¹, the “Ki (fold)” value [16] is reported as 290 fold and the Ki [14] is reported as 0.453 nM. The “ΔΔGa, edge I18F to M17G/I18F” value [15] was -1.22 kcal/mol and the “ΔΔGa, edge M17G to M17G/I18F” value [15] was -1.22 kcal/mol.

B10: APPIT11V/M17G/I18F/F34V (SEQ ID NO: 9), soluble (designed binder)
chain: B1 chain with T9V, M15G, I16F, F32V
notes: as for B3
For B10, the “Kcat (1/s), proteolytic resistance” value [28] was 0.000347 s⁻¹, the “fold improvement in affinity relative to APPI-WT” value [29] was about 2000 fold and the Ki [30] was 0.0499 nM.

B11: APPIM17G/I18F/K29L/F34V (SEQ ID NO: 10), soluble (designed binder)
chain: B1 chain with M15G, I16F, K27L, F32V
notes: as for B3
With B11 the “Kcat (1/s), proteolytic resistance” value [28] was 0.000535 s⁻¹, the “fold improvement in affinity relative to APPI-WT” value [29] was about 1000 fold and the Ki [30] was 0.0891 nM.

B12: APPIT11C/M17G/I18F/F34C (SEQ ID NO: 11), soluble (designed binder)
chain: B1 chain with T9C, M15G, I16F, F32C
notes: as for B3
For B12, the “Kcat (1/s), proteolytic resistance” value [28] was 0.00521 s⁻¹ and the Ki [30] was 149 nM.

B13: APPI-M17G/F34V (SEQ ID NO: 21), soluble (designed binder)
chain: B1 chain with M15G, F32V
notes: as for B3
In the case of B13, the “Kcat (s^-1) of hydrolysis of APPI” value [11] is reported as 0.00371 s⁻¹, the “Ki (fold)” value [16] is reported as 93.6 fold and the Ki [14] is reported as 1.4 nM. The “ΔΔGa, edge F34V to M17G/F34V” value [15] was -2.2 kcal/mol and the “ΔΔGa, edge M17G to M17G/F34V” value [15] was -0.53 kcal/mol.
